Values of other authors as cited in patent US12653792B2, “Synthetic lipids for mRNA delivery” (Trustees of Tufts College, priority 2019, dated 2026).

Molecular target: T1, ANGPTL3 (Homo sapiens, UniProt Q9Y5C1)
T1 sequence (Q9Y5C1 17-460): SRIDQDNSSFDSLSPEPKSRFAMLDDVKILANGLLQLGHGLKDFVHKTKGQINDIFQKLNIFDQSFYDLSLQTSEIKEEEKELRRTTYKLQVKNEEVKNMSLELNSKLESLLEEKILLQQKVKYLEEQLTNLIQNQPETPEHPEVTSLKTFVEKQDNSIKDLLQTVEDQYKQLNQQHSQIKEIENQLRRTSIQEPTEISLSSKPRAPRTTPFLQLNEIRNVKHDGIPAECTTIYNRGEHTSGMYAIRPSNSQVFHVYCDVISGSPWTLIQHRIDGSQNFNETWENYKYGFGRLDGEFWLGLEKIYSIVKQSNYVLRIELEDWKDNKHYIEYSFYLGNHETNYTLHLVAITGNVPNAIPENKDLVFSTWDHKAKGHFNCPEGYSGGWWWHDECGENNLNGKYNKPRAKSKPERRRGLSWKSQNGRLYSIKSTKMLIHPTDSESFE
Settings: healthy human volunteers, clinical trial

evinacumab: ANGPTL3 targeting monoclonal antibody
LDL-C and TG levels: effective reduction in LDL-C and TG levels
